Results: article PMC2475716 (The Journal of Biological Chemistry, 2008)

B1: HGF-α (domain or fragment, UniProt P14210 32-473, looked up)
chain: QRKRRNTIHEFKKSAKTTLIKIDPALKIKTKKVNTADQCANRCTRNKGLPFTCKAFVFDKARKQCLWFPFNSMSSGVKKEFGHEFDLYENKDYIRNCIIGKGRSYKGTVSITKSGIKCQPWSSMIPHEHSFLPSSYRGKDLQENYCRNPRGEEGGPWCFTSNPEVRYEVCDIPQCSEVECMTCNGESYRGLMDHTESGKICQRWDHQTPHRHKFLPERYPDKGFDDNYCRNPDGQPRPWCYTLDPHTRWEYCAIKTCADNTMNDTDVPLETTECIQGQGEGYRGTVNTIWNGIPCQRWDSQYPHEHDMTPENFKCKDLRENYCRNPDGSESPWCFTTDPNIRVGYCSQIPNCDMSHGQDCYRGNGKNYMGNLSQTRSGLTCSMWDKNMEDLHRHIFWEPDASKLNENYCRNPDDDAHGPWCYTGNPLIPWDYCPISRCEGDT
B2: PSI-IPT (domain or fragment, UniProt P08581 516-932, looked up)
chain: NGLGCRHFQSCSQCLSAPPFVQCGWCHDKCVRSEECLSGTWTQQICLPAIYKVFPNSAPLEGGTRLTICGWDFGFRRNNKFDLKKTRVLLGNESCTLTLSESTMNTLKCTVGPAMNKHFNMSIIISNGHGTTQYSTFSYVDPVITSISPKYGPMAGGTLLTLTGNYLNSGNSRHISIGGKTCTLKSVSNSILECYTPAQTISTEFAVKLKIDLANRETSIFSYREDPIVYEIHPTKSFISGGSTITGVGKNLNSVSVPRMVINVHEAGRNFTVACQHRSNSEIICCTTPSLQQLNLQLPLKTKAFFMLDGILSKYFDLIYVHNPVFKPFEKPVMISMGNENVLEIKGNDIDPEAVKGEVLKVGNKSCENIHLHSEAVLCTVPNDLLKLNSELNIEWKQAISSTVLGKVIVQPDQNFT
B3: IPT Δ1 (domain or fragment, UniProt P08581 657-932, looked up)
chain: PVITSISPKYGPMAGGTLLTLTGNYLNSGNSRHISIGGKTCTLKSVSNSILECYTPAQTISTEFAVKLKIDLANRETSIFSYREDPIVYEIHPTKSFISGGSTITGVGKNLNSVSVPRMVINVHEAGRNFTVACQHRSNSEIICCTTPSLQQLNLQLPLKTKAFFMLDGILSKYFDLIYVHNPVFKPFEKPVMISMGNENVLEIKGNDIDPEAVKGEVLKVGNKSCENIHLHSEAVLCTVPNDLLKLNSELNIEWKQAISSTVLGKVIVQPDQNFT
B4: HGF NK1 (domain or fragment, UniProt P14210-1 32-205, looked up)
chain: QRKRRNTIHEFKKSAKTTLIKIDPALKIKTKKVNTADQCANRCTRNKGLPFTCKAFVFDKARKQCLWFPFNSMSSGVKKEFGHEFDLYENKDYIRNCIIGKGRSYKGTVSITKSGIKCQPWSSMIPHEHSFLPSSYRGKDLQENYCRNPRGEEGGPWCFTSNPEVRYEVCDIPQ

Experiments:
Experiment in all cases: ELISA
Decoy Met = Decoy Met (UniProt P08581 25-932)
active HGF = active HGF (UniProt P14210 32-494; P14210 495-728)
active HGF, sequence (P14210 495-728, one chain of several): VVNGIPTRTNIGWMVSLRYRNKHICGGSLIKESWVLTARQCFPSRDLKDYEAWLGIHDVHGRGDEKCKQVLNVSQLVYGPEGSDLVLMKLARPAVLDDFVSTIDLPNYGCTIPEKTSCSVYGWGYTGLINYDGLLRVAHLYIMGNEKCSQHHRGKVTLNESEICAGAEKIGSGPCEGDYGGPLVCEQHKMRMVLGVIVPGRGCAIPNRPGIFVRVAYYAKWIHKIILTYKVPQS

HGF-α = biological target: B1
IPT = IPT (UniProt P08581 563-932)

## B1
Decoy Met
  fold reduced affinity compared with active HGF: 4 fold

## B2
Active HGF
  binding result: binds

## B3
HGF-α
  binding result: binds

## B4
Decoy Met
  fold reduced affinity compared with active HGF: 10 fold
IPT
  fold less tightly than active HGF: 10 times
